Experimental data: patent US20230331827A1, “POTASSIUM CHANNEL INHIBITORS” (priority 2017, published 2023)

Key:
[1] = molecular target: T1, human Kv1.1 (huKv1.1) (Homo sapiens, UniProt Q09470); assay: QPatch automated patch-clamp, CHO-S cells expressing huKv1.1 (Examples 20-21); format: cell-based; settings: four-point curves of FIG. 33, Table E20
T1 construct: expressed in transfected cells; host or cells: Freestyle CHO-S

[2] = tested on: in vitro rat BBB model; assay: In vitro rat BBB model transcytosis, sandwich ELISA of Fab in lower chamber; format: in vitro ADME; settings: test Fabs as oligoclonal mixes of 3 per well at 2 µM, controls 1 µM, value is per well
Method: In order to assess the ability of these KnotBodies to cross the BBB, a ready to use in vitro rat BBB model system (Pharmacocell, Cat. No. RBT-24H) was used. In this model system rat brain endothelial cells were co-cultured with pericytes and astrocytes to mimic the in vivo BBB anatomy (Nakagawa, S. et al. (2009) Neurochem. Int. 54, 253-263). The in vitro rat BBB kit was cultured according to manufacturer’s instructions and transendothelial electrical resistance (TEER) was measured prior to testing of KnotBodies to verify the integrity of the barrier. […] 21 KnotBody Fabs were tested for their ability to cross the in vitro BBB model system. […] The parent KnotBody KB_A12 was used as a negative control. Both positive and negative controls were expressed and purified in the Fab format as described above. […] The concentration of transcytosed Fabs in the lower chamber (referred as brain side) was determined using a sandwich ELISA. In this ELISA, Fabs were captured using an anti-CH1 antibody (provided by Hybridoma Reagent Laboratories) and detected using rabbit anti-human IgG Kappa light chain antibody (Abcam, Cat. No. ab195576) or anti-human IgG Lambda light chain antibody (Abcam, Cat. No. ab124719) followed by europium conjugated anti-rabbit antibody (Perkin Elmer, Cat. No. AD0105). […]

T1 sequence (Q09470 whole entry): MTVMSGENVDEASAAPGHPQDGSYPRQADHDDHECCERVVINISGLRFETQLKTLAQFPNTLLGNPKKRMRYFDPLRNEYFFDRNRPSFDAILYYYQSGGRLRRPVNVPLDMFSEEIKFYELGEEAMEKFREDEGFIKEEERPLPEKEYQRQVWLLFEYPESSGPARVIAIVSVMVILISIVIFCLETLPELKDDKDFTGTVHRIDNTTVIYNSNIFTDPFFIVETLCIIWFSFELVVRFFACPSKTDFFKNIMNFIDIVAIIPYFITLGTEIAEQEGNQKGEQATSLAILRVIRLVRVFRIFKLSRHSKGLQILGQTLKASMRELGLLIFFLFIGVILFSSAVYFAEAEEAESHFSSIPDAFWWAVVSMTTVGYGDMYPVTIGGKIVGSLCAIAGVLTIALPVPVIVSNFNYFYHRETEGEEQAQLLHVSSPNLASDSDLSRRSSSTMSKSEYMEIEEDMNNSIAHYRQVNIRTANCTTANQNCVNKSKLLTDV

Molecule	IC50 [1] [nM]	% transcytosis after 6h [2] [%]
KB_A12_ShK: ShK toxin in VL CDR2 of KB_A12, IgG1 (antibody, V domains shown) VH: EVQLVESGGGLVRPGGSLRLSCAASGFTFSSYAMSWVRQAPGKGLEWVSAISGSGGSTYYADSVKGRFTISRDNTKNSLYLQMTSLRADDTAFYYCVKDFGPGYGTGWFDYWGPGTLVTVSS VL: QSVLTQPPSVSEAPRQRVTITCSGSSSNIGNNAVNWYQQLPGKAPKLLIYAAGRRSCIDTIPKSRCTAFQCKHSMKYRLSFCRKTCGTCANSGVSDRFSAAKSGTSASLAINGLRSEDEADYYCAAWDDSLNGYVFGTGTKLTVLG	40	–
KB_A12: EETI-II knottin fused into VL CDR2, D1A12 VH; parental KnotBody, isotype control (antibody, V domains shown) VH: EVQLVESGGGLVRPGGSLRLSCAASGFTFSSYAMSWVRQAPGKGLEWVSAISGSGGSTYYADSVKGRFTISRDNTKNSLYLQMTSLRADDTAFYYCVKDFGPGYGTGWFDYWGPGTLVTVSS VL: QSVLTQPPSVSEAPRQRVTITCSGSSSNIGNNAVNWYQQLPGKAPKLLIYAAGRCPRILMRCKQDSDCLAGCVCGPNGFCGANSGVSDRFSAAKSGTSASLAINGLRSEDEADYYCAAWDDSLNGYVFGTGTKLTVLGQP	–	0.1
